Source: the supplement of paper PMC5998384

Experiments:
HeLa Kyoto [1] = assay: solubility in G1/S (NP-40 vs SDS abundance) (log2 ratio); higher = more soluble; conditions: cell cycle stage: G1/S
HeLa Kyoto [2] = assay: solubility change mitosis vs G1/S (difference of NP-40 vs SDS log2 ratios) (log2 ratio difference); higher = more soluble in mitosis
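For solubility change mitosis vs G1/S (difference of NP-40 vs SDS log2 ratios) in this document: synchronized HeLa Kyoto cells (double thymidine block for G1/S, nocodazole release for mitosis), protein amounts in NP-40 versus SDS lysates quantified by mass spectrometry, three biological replicates.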
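For solubility in G1/S (NP-40 vs SDS abundance) in this document: HeLa Kyoto cells arrested at G1/S by double thymidine block, proteins quantified by TMT10plex mass spectrometry in mild NP-40 versus SDS extracts, three biological replicates.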

Sequence	solubility in G1/S (log2) (HeLa Kyoto [1])	solubility change mitosis (log2) (HeLa Kyoto [2])
MPVERMRMRPWLEEQINSNTIPGLKWLNKEKKIFQIPWMHAARHGWDVEKDAPLFRNWAIHTGKHQPGVDKPDPKTWKANFRCAMNSLPDIEEVKDKSIKKGNNAFRVYRMLPLSERPSKKGKKPKTEKEDKVKHIKQEPVESSLGLSNGVSDLSPEYAVLTSTIKNEVDSTVNIIVVGQSHLDSNIENQEIVTNPPDICQVVEVTTESDEQPVSMSELYPLQISPVSSYAESETTDSVPSDEESAEGRPHWRKRNIEGKQYLSNMGTRGSYLLPGMASFVTSNKPDLQVTIKEESNPVPYNSSWPPFQDLPLSSSMTPASSSSRPDRETRASVIKKTSDITQARVKSC [IRF2]	0.0934	0.0622
MPYVDRQNRICGFLDIEEHENSGKFLRRYFILDTQANCLLWYMDNPQNLAMGAGAVGALQLTYISKVSIATPKQKPKTPFCFVINALSQRYFLQANDQKDMKDWVEALNQASKITVPKGGGLPMTTEVLKSLAAPPALEKKPQVAYKTEIIGGVVVHTPISQNGGDGQEGSEPGSHTILRRSQSYIPTSGCRASTGPPLIKSGYCVKQGNVRKSWKRRFFALDDFTICYFKCEQDREPLRTIFLKDVLKTHECLVKSGDLLMRDNLFEIITSSRTFYVQADSPEDMHSWIKEIGAAVQALKCHPRETSFSRSISLTRPGSSSLSSGPNSILCRGRPPLEEKKALCKAPSVASSWQPWTPVPQAGEKLLPPGDTSEDSLFTPRPGEGSAPGVLPSSRIRHRSEPQHPKEKPFMFNLDDENIRTSDV [PLEKHA2]	0.121	-0.19
MQAKKRYFILLSAGSCLALLFYFGGLQFRASRSHSRREEHSGRNGLHHPSPDHFWPRFPDALRPFVPWDQLENEDSSVHISPRQKRDANSSIYKGKKCRMESCFDFTLCKKNGFKVYVYPQQKGEKIAESYQNILAAIEGSRFYTSDPSQACLFVLSLDTLDRDQLSPQYVHNLRSKVQSLHLWNNGRNHLIFNLYSGTWPDYTEDVGFDIGQAMLAKASISTENFRPNFDVSIPLFSKDHPRTGGERGFLKFNTIPPLRKYMLVFKGKRYLTGIGSDTRNALYHVHNGEDVVLLTTCKHGKDWQKHKDSRCDRDNTEYEKYDYREMLHNATFCLVPRGRRLGSFRFLEALQAACVPVMLSNGWELPFSEVINWNQAAVIGDERLLLQIPSTIRSIHQDKILALRQQTQFLWEAYFSSVEKIVLTTLEIIQDRIFKHISRNSLIWNKHPGGLFVLPQYSSYLGDFPYYYANLGLKPPSKFTAVIHAVTPLVSQSQPVLKLLVAAAKSQYCAQIIVLWNCDKPLPAKHRWPATAVPVVVIEGESKVMSSRFLPYDNIITDAVLSLDEDTVLSTTEVDFAFTVWQSFPERIVGYPARSHFWDNSKERWGYTSKWTNDYSMVLTGAAIYHKYYHYLYSHYLPASLKNMVDQLANCEDILMNFLVSAVTKLPPIKVTQKKQYKETMMGQTSRASRWADPDHFAQRQSCMNTFASWFGYMPLIHSQMRLDPVLFKDQVSILRKKYRDIERL [EXT1]	-0.14	-0.163
MQGSTRRMGVMTDVHRRFLQLLMTHGVLEEWDVKRLQTHCYKVHDRNATVDKLEDFINNINSVLESLYIEIKRGVTEDDGRPIYALVNLATTSISKMATDFAENELDLFRKALELIIDSETGFASSTNILNLVDQLKGKKMRKKEAEQVLQKFVQNKWLIEKEGEFTLHGRAILEMEQYIRETYPDAVKICNICHSLLIQGQSCETCGIRMHLPCVAKYFQSNAEPRCPHCNDYWPHEIPKVFDPEKERESGVLKSNKKSLRSRQH [NSMCE1]	0.0262	-0.0633
MQLEIQVALNFIISYLYNKLPRRRVNIFGEELERLLKKKYEGHWYPEKPYKGSGFRCIHIGEKVDPVIEQASKESGLDIDDVRGNLPQDLSVWIDPFEVSYQIGEKGPVKVLYVDDNNENGCELDKEIKNSFNPEAQVFMPISDPASSVSSSPSPPFGHSAAVSPTFMPRSTQPLTFTTATFAATKFGSTKMKNSGRSNKVARTSPINLGLNVNDLLKQKAISSSMHSLYGLGLGSQQQPQQQQQPAQPPPPPPPPQQQQQQKTSALSPNAKEFIFPNMQGQGSSTNGMFPGDSPLNLSPLQYSNAFDVFAAYGGLNEKSFVDGLNFSLNNMQYSNQQFQPVMAN [TOB1]	0.14	-0.114
MQLRKMQTVKKEQASLDASSNVDKMMVLNSALTEVSEDSTTGEELLLSEGSVGKNKSSACRRKREFIPDEKKDAMYWEKRRKNNEAAKRSREKRRLNDLVLENKLIALGEENATLKAELLSLKLKFGLISSTAYAQEIQKLSNSTAVYFQDYQTSKSNVSSFVDEHEPSMVSSSCISVIKHSPQSSLSDVSEVSSVEHTQESSVQGSCRSPENKFQIIKQEPMELESYTREPRDDRGSYTASIYQNYMGNSFSGYSHSPPLLQVNRSSSNSPRTSETDDGVVGKSSDGEDEQQVPKGPIHSPVELKHVHATVVKVPEVNSSALPHKLRIKAKAMQIKVEAFDNEFEATQKLSSPIDMTSKRHFELEKHSAPSMVHSSLTPFSVQVTNIQDWSLKSEHWHQKELSGKTQNSFKTGVVEMKDSGYKVSDPENLYLKQGIANLSAEVVSLKRLIATQPISASDSG [NFIL3]	0.00864	0.104
MQRAVPEGFGRRKLGSDMGNAERAPGSRSFGPVPTLLLLAAALLAVSDALGRPSEEDEELVVPELERAPGHGTTRLRLHAFDQQLDLELRPDSSFLAPGFTLQNVGRKSGSETPLPETDLAHCFYSGTVNGDPSSAAALSLCEGVRGAFYLLGEAYFIQPLPAASERLATAAPGEKPPAPLQFHLLRRNRQGDVGGTCGVVDDEPRPTGKAETEDEDEGTEGEDEGAQWSPQDPALQGVGQPTGTGSIRKKRFVSSHRYVETMLVADQSMAEFHGSGLKHYLLTLFSVAARLYKHPSIRNSVSLVVVKILVIHDEQKGPEVTSNAALTLRNFCNWQKQHNPPSDRDAEHYDTAILFTRQDLCGSQTCDTLGMADVGTVCDPSRSCSVIEDDGLQAAFTTAHELGHVFNMPHDDAKQCASLNGVNQDSHMMASMLSNLDHSQPWSPCSAYMITSFLDNGHGECLMDKPQNPIQLPGDLPGTSYDANRQCQFTFGEDSKHCPDAASTCSTLWCTGTSGGVLVCQTKHFPWADGTSCGEGKWCINGKCVNKTDRKHFDTPFHGSWGMWGPWGDCSRTCGGGVQYTMRECDNPVPKNGGKYCEGKRVRYRSCNLEDCPDNNGKTFREEQCEAHNEFSKASFGSGPAVEWIPKYAGVSPKDRCKLICQAKGIGYFFVLQPKVVDGTPCSPDSTSVCVQGQCVKAGCDRIIDSKKKFDKCGVCGGNGSTCKKISGSVTSAKPGYHDIITIPTGATNIEVKQRNQRGSRNNGSFLAIKAADGTYILNGDYTLSTLEQDIMYKGVVLRYSGSSAALERIRSFSPLKEPLTIQVLTVGNALRPKIKYTYFVKKKKESFNAIPTFSAWVIEEWGECSKSCELGWQRRLVECRDINGQPASECAKEVKPASTRPCADHPCPQWQLGEWSSCSKTCGKGYKKRSLKCLSHDGGVLSHESCDPLKKPKHFIDFCTMAECS [ADAMTS1]	-0.34	-0.192
MQRRSRGINTGLILLLSQIFHVGINNIPPVTLATLALNIWFFLNPQKPLYSSCLSVEKCYQQKDWQRLLLSPLHHADDWHLYFNMASMLWKGINLERRLGSRWFAYVITAFSVLTGVVYLLLQFAVAEFMDEPDFKRSCAVGFSGVLFALKVLNNHYCPGGFVNILGFPVPNRFACWVELVAIHLFSPGTSFAGHLAGILVGLMYTQGPLKKIMEACAGGFSSSVGYPGRQYYFNSSGSSGYQDYYPHGRPDHYEEAPRNYDTYTAGLSEEEQLERALQASLWDRGNTRNSPPPYGFHLSPEEMRRQRLHRFDSQ [RHBDD1]	-0.291	-0.0234
MRFAWTVLLLGPLQLCALVHCAPPAAGQQQPPREPPAAPGAWRQQIQWENNGQVFSLLSLGSQYQPQRRRDPGAAVPGAANASAQQPRTPILLIRDNRTAAARTRTAGSSGVTAGRPRPTARHWFQAGYSTSRAREAGASRAENQTAPGEVPALSNLRPPSRVDGMVGDDPYNPYKYSDDNPYYNYYDTYERPRPGGRYRPGYGTGYFQYGLPDLVADPYYIQASTYVQKMSMYNLRCAAEENCLASTAYRADVRDYDHRVLLRFPQRVKNQGTSDFLPSRPRYSWEWHSCHQHYHSMDEFSHYDLLDANTQRRVAEGHKASFCLEDTSCDYGYHRRFACTAHTQGLSPGCYDTYGADIDCQWIDITDVKPGNYILKVSVNPSYLVPESDYTNNVVRCDIRYTGHHAYASGCTISPY [LOX]	-0.354	0.257
MRGPSGALWLLLALRTVLGGMEVRWCATSDPEQHKCGNMSEAFREAGIQPSLLCVRGTSADHCVQLIAAQEADAITLDGGAIYEAGKEHGLKPVVGEVYDQEVGTSYYAVAVVRRSSHVTIDTLKGVKSCHTGINRTVGWNVPVGYLVESGRLSVMGCDVLKAVSDYFGGSCVPGAGETSYSESLCRLCRGDSSGEGVCDKSPLERYYDYSGAFRCLAEGAGDVAFVKHSTVLENTDGKTLPSWGQALLSQDFELLCRDGSRADVTEWRQCHLARVPAHAVVVRADTDGGLIFRLLNEGQRLFSHEGSSFQMFSSEAYGQKDLLFKDSTSELVPIATQTYEAWLGHEYLHAMKGLLCDPNRLPPYLRWCVLSTPEIQKCGDMAVAFRRQRLKPEIQCVSAKSPQHCMERIQAEQVDAVTLSGEDIYTAGKTYGLVPAAGEHYAPEDSSNSYYVVAVVRRDSSHAFTLDELRGKRSCHAGFGSPAGWDVPVGALIQRGFIRPKDCDVLTAVSEFFNASCVPVNNPKNYPSSLCALCVGDEQGRNKCVGNSQERYYGYRGAFRCLVENAGDVAFVRHTTVFDNTNGHNSEPWAAELRSEDYELLCPNGARAEVSQFAACNLAQIPPHAVMVRPDTNIFTVYGLLDKAQDLFGDDHNKNGFKMFDSSNYHGQDLLFKDATVRAVPVGEKTTYRGWLGLDYVAALEGMSSQQCSGAAAPAPGAPLLPLLLPALAARLLPPAL [MFI2]	-0.519	-0.0542
MRPKTFPATTYSGNSRQRLQEIREGLKQPSKSSVQGLPAGPNSDTSLDAKVLGSKDATRQQQQMRATPKFGPYQKALREIRYSLLPFANESGTSAAAEVNRQMLQELVNAGCDQEMAGRALKQTGSRSIEAALEYISKMGYLDPRNEQIVRVIKQTSPGKGLMPTPVTRRPSFEGTGDSFASYHQLSGTPYEGPSFGADGPTALEEMPRPYVDYLFPGVGPHGPGHQHQHPPKGYGASVEAAGAHFPLQGAHYGRPHLLVPGEPLGYGVQRSPSFQSKTPPETGGYASLPTKGQGGPPGAGLAFPPPAAGLYVPHPHHKQAGPAAHQLHVLGSRSQVFASDSPPQSLLTPSRNSLNVDLYELGSTSVQQWPAATLARRDSLQKPGLEAPPRAHVAFRPDCPVPSRTNSFNSHQPRPGPPGKAEPSLPAPNTVTAVTAAHILHPVKSVRVLRPEPQTAVGPSHPAWVPAPAPAPAPAPAPAAEGLDAKEEHALALGGAGAFPLDVEYGGPDRRCPPPPYPKHLLLRSKSEQYDLDSLCAGMEQSLRAGPNEPEGGDKSRKSAKGDKGGKDKKQIQTSPVPVRKNSRDEEKRESRIKSYSPYAFKFFMEQHVENVIKTYQQKVNRRLQLEQEMAKAGLCEAEQEQMRKILYQKESNYNRLKRAKMDKSMFVKIKTLGIGAFGEVCLACKVDTHALYAMKTLRKKDVLNRNQVAHVKAERDILAEADNEWVVKLYYSFQDKDSLYFVMDYIPGGDMMSLLIRMEVFPEHLARFYIAELTLAIESVHKMGFIHRDIKPDNILIDLDGHIKLTDFGLCTGFRWTHNSKYYQKGSHVRQDSMEPSDLWDDVSNCRCGDRLKTLEQRARKQHQRCLAHSLVGTPNYIAPEVLLRKGYTQLCDWWSVGVILFEMLVGQPPFLAPTPTETQLKVINWENTLHIPAQVKLSPEARDLITKLCCSADHRLGRNGADDLKAHPFFSAIDFSSDIRKQPAPYVPTISHPMDTSNFDPVDEESPWNDASEGSTKAWDTLTSPNNKHPEHAFYEFTFRRFFDDNGYPFRCPKPSGAEASQAESSDLESSDLVDQTEGCQPVYV [LATS2]	0.178	-0.0575
